Data from US20220409742A1, “NUCLEIC ACID NANOPARTICLES, PHARMACEUTICAL COMPOSITION COMPRISING SAME, DRUG COMPRISING DOXORUBICIN AND PREPARATION METHOD THEREFOR” (BAI YAO ZHI DA (BEIJING) NANOBIO TECHNOLOGY CO., LTD., priority 2018, published 2022).
{Biotin} = biotin attached at the strand end; {Cy3} = Cy3 fluorescent dye

Legend:
[1] = tested on: HepG2 cells; assay: Cytotoxicity of RNA nanoparticles in HepG2 cells (CellTiter-Glo); format: cell-based; details: 200 nM, 72 hours, CTG
Method: (1) A RPMI1640+10% FBS+1% PS medium was used to culture HepG2 cells under 37 DEG C. and 5% CO2.
(2) The HepG2 cells were digested by a trypsin, 100 μL of 5000 cells per well was inoculated in a 96-well plate, and cultured overnight under 37 DEG C. and 5% CO2.
(3) Cell supernatant was removed on the second day, a sample to be tested was diluted with the culture medium, 200 nM of RNAh, RNAh-Biotine, RNAh-Dox and Dox were respectively added, 100 μL each was added to the plated cells, and each sample was repeated for 4 times.
(4) After being cultured for 72 hours, 100 μL of a CTG reagent was added to each well, shaking was performed for 2 min, and standing was performed at a room temperature for 10 minutes, and a whole process was performed in the dark.
(5) Finally Soft Max ProS software was used for reading.

[2] = Serum stability of RNA nanoparticles, RPMI 1640 with 10% serum, non-denaturing gel; format: in vitro ADME; details: for RNA quantification result, RNA nanoparticle: RPMI 1640 with 10% serum, 37 DEG C.
Method: (1) 350 μl of the PBS was absorbed into a RNA nanoparticle sample, and adequately mixed uniformly.
(2) 2 μM of the RNA nanoparticles were incubated in the RPMI 1640 medium containing 10% serum.
(3) After being incubated at 37 DEG C. for 10 min, 1 h, 12 h, and 36 h, samples were taken respectively.
(4) After NanoDrop used for quantification, 200 ng of the RNA nanoparticlesnanoparticle were taken, the same volume of Tris-Glycine SDS sample buffer solution (2×) was added, and adequately mixed uniformly.
(5) A piece of Novex™ 8% Tris-Glycine Mini gel was taken, the samples were loaded in order, a program was set in 200 V, 30 min, and electrophoresis was started.
(6) After the electrophoresis was over, G250 staining was performed, it was placed on a horizontal shaker for 30 min to 1 h, and pictures were taken for imaging.

[3] = Doxorubicin loading rate, physical loading; format: physicochemical; details: mass ratio doxorubicin:RNA nanoparticles 1:1, 55 DEG C., 3 h
Method: 1) enabling a mass ratio of the doxorubicin and the RNA nanoparticles to be 1:1;
2) weighing 0.1 mg of a doxorubicin original drug and dissolving in 50 μL of DMSO, and then adding 300 μL of the PBS and mixing uniformly;
3) enabling RNA particles to be dissolved in 200 μL of the […] treated water, and adding into the doxorubicin-PBS mixed solution, uniformly mixing, and adjusting a pH to be about 7.5;
4) putting the whole solution in a water bath kettle at 55 DEG C., and reacting for 3 h;
5) after the reaction, directly adding 10 times of anhydrous ethanol in volume, and precipitating at 4 DEG C. for 4 h; and
6) washing for 4 times with 10 times of the anhydrous ethanol, and transferring to 1.5 mL of a EP tube. Subsequently, measuring a loading rate, herein the measuring method is the same as above, and a measuring result is that a doxorubicin loading rate is 15.5.

Molecule	HepG2 cell proliferation (%) Mean ± SEM (n = 4) [1]	serum stability (non-denaturing gel bands) ([2]; 1640 medium of 10% FBS, 10 min, 1 h, 12 h, 36 h at 37 DEG C.)	RNA quantification result, RNA nanoparticle ([2]; incubation 10 min)	RNA quantification result, RNA nanoparticle ([2]; incubation 1 h)	RNA quantification result, RNA nanoparticle ([2]; incubation 12 h)	RNA quantification result, RNA nanoparticle ([2]; incubation 36 h)	RNA quantification result, RNA nanoparticle ([2]; incubation time 0)	doxorubicin loading rate [3]
COc1cccc2c1C(=O)c1c(O)c3c(c(O)c1C2=O)C[C@@](O)(C(=O)CO)C[C@@H]3O[C@H]1C[C@H](N)[C@H](O)[C@H](C)O1 [doxorubicin]	39.56%	–	–	–	–	–	–	–
RNA nanoparticles: RNA nanoparticles self-assembled in Embodiment 1 from strands SEQ ID NO:52-54, C/U 2′F, 5′Biotin, 5′CY3 (nucleic acid, chain 1: 2'-fluoro at CU, RNA at AG, 5' {Biotin}, backbone not given here; chain 2: 2'-fluoro at CU, RNA at AG, 5' {Biotin}, backbone not given here; chain 3: 2'-fluoro at CU, RNA at AG, 5' {Cy3}, backbone not given here; three-strand self-assembled RNA nanoparticle) chain 1: CGCGCGCCCACCAGCGUUCCGGGCGCCGC chain 2: GCGGCGCCCGGUUCGCCGCCAGGCGGC chain 3: GCCGCCAGGCGGCCAUAGCGGUGGGCGCGCG	–	relatively stable	193.5 ng/µL	176.0 ng/µL	175.5 ng/µL	214.8 ng/µL	178.8 ng/µL	15.5
